Laboratory results as given in patent US20160017353A1.

Target: EGF receptor (EGFR) (human) (UniProt P00533)
Assay: cell-based or functional assay

HK-2 cell proliferation (cell count), 150 ng/ml total rice medium protein (5 ng H-EGF): 2.9 fold
Substance: recombinant HSA-EGF fusion protein (human serum albumin fused to the N-terminal end of human EGF), secreted from transgenic rice cell line H-EGF 43 (from UniProt P02768 25-609) (ligand)
